Data published in patent publication US12667624B2, “GIP derivative, long-acting conjugate thereof, and pharmaceutical composition comprising same” (HANMI PHARM. CO., LTD., priority 2020, dated 2026).
Non-standard residues stand in square brackets, D forms with d. No end group written: not given here. Aib = CC(C)(N)C(=O)O

Legend:
human GIP receptor = target: T1, human GIP receptor (Homo sapiens, UniProt P48546); test: In vitro activity of long-acting GIP conjugates: cAMP accumulation in CHO cells expressing human GIP receptor; type: cell-based; settings: relative potency from cAMP EC50, CHO cells expressing human GIP receptor; PEG-immunoglobulin Fc conjugates
T1 construct: expressed in transfected cells; host or cells: CHO (Chinese hamster ovary)
T1 sequence (P48546 22-466): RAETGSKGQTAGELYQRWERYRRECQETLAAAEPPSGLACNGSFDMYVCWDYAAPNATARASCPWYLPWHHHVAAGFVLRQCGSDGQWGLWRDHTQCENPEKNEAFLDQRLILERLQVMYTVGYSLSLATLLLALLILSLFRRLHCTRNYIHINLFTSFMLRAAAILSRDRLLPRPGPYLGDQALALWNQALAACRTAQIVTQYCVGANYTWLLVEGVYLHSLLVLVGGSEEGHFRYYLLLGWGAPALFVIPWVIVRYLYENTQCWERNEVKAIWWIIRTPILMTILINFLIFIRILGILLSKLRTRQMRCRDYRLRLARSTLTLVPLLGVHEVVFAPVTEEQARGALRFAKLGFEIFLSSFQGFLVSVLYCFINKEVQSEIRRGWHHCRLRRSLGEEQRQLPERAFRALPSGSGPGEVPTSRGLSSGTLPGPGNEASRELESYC
Experimental: To measure the activity of the long-acting GIP conjugates prepared in Example 3, a method of measuring cell activity in vitro using a cell line transformed with the GIP receptor was used in the same manner as in Example 2.
In detail, to measure the activity of the long-acting GIP derivatives in the human GIP receptors, human GIP was serially diluted from 16 nM to 0.000015 nM by 4 folds, and the long-acting GIP derivatives prepared in Example 1 were each serially diluted from 50 nM to 0.000048 nM by 4 folds. The culture medium was removed from the cultured CHO cells where the human GIP receptors were expressed, 5 μl of each of the serially diluted materials was added to the cells, and then, 5 μl of buffer containing cAMP antibody was added thereto, followed by incubation at room temperature for 15 minutes. Next, the cells were lysed by adding 10 μl of detection mix containing cell lysis buffer, and then allowed for a reaction at room temperature for 90 minutes. The cell lysate obtained by the completion of the reaction was applied to the LANCE cAMP kit (PerkinElmer, USA) to calculate the EC50 value through the accumulated cAMP to be compared with each other.

THP-1 cell line [1] = test: Expression of inflammation-related genes in LPS-treated THP-1 cell line (real-time PCR); type: cell-based, human; settings: THP-1, LPS 1 μg/mL; native GIP 10 μM, long-acting GIP derivative 1 or 10 μM; FIG. 2A
Description: To confirm the in vitro anti-inflammatory effect of the long-acting GIP derivative conjugate on vasculitis, a human monocyte/macrophage cell line, THP-1 cell line, was used. A macrophage is known to secrete cytokines and chemokines in the early stage of infection in vasculitis-infected tissue, induce the progress of inflammation by utilizing other immune cells, and form giant cells. Therefore, identification of the anti-inflammatory effect in macrophages is referred to as an appropriate in vitro system for evaluating the efficacy on vasculitis.
The THP-1 cell line was cultured in RPMI 1640 medium supplemented with 10% fetal bovine serum (FBS), 100 μg/mL of streptomycin, 100 U/mL of penicillin, and […] of β-mercaptoethanol, under conditions of a temperature of 37° C. and 5% carbon dioxide. […] For use as the long-acting GIP derivative, the long-acting GIP conjugate (SEQ ID NO: 17) prepared in Example 3 was used.
RNA was isolated from the completely treated THP-1 cell line by using the RNeasy Mini Kit (Qiagen, US), and then cDNA was synthesized by using the iScript™ cDNA Synthesis Kit (Bio-rad, U.S.). The synthesized cDNA was referred to confirm the expression levels of inflammation-related genes by using the QuantStudio 6 Flex Real-Time PCR System (Applied Biosystems, U.S.). Here, the Delta Ct method was used, and beta-actin was used as a housekeeping gene. […]

THP-1 cell line [2] = test: TNF-α concentration in medium of LPS-treated THP-1 cell line (ELISA); type: cell-based, human; settings: THP-1, LPS 0.1 pg/mL; native GIP 1 μM, long-acting GIP derivative 0.1 μM or 1 μM; FIG. 2B
Description: Here, the medium was quantified by using Human TNF alpha ELISA Kit (Abcam, US).

Row | Substance | In vitro activity of long-acting GIP derivative compared to human native GIP in human GIP receptor (%) (human GIP receptor) | expression levels of inflammation-related genes IL-6, IL-12, IL-1β and TNF-α (THP-1 cell line [1]) | concentration of TNF-α in the medium (THP-1 cell line [2])
1 | YAibEGT FISDYSIALEKQAQQDFVNWLLAGGPSSGAPPPSC (Y[Aib]EGTFISDYSIALEKQAQQDFVNWLLAGGPSSGAPPPSC) [SEQ ID NO: 17, GIP derivative peptide] | 153.2 | – | –
2 | YAibEGT FISDYSIAMDAIAQQDFVNWLLAQKGKKNDWKHNITQC (Y[Aib]EGTFISDYSIAMDAIAQQDFVNWLLAQKGKKNDWKHNITQC) [SEQ ID NO: 11, GIP derivative peptide] | 84.8 | – | –
3 | YAibEGT FISDY SIAibLD KQAAAib EFVNW LLAibGG PSSGA PPPSC (Y[Aib]EGTFISDYSI[Aib]LDKQAA[Aib]EFVNWLL[Aib]GGPSSGAPPPSC) [SEQ ID NO: 21, GIP derivative peptide] | 148.5 | – | –
4 | YAibEGT FISDY SIAibLD KQAAAib EFVNW LLAibGH PSSGA PPPSC (Y[Aib]EGTFISDYSI[Aib]LDKQAA[Aib]EFVNWLL[Aib]GHPSSGAPPPSC) [SEQ ID NO: 24, GIP derivative peptide] | 123.3 | – | –
5 | glucose-dependent insulinotropic polypeptide [native GIP] | – | decreased | decreased
